As a reminder, the Kd is the concentration at which binding is half-saturated.

For assay [1], the target named is HLA-A2m monomer in ternary complex with binding peptide Mart-1 26-35L (human). Description: fluorimetric plate assay, avidin-coated plate, 40 min at room temperature; 0.5 µg/ml antibody, 0.5 µg/ml monomer.
Assay [2] shares this target. Description: fluorimetric plate assay, avidin-coated plate, 40 min at room temperature; 1 µg/ml antibody, 0.5 µg/ml monomer.
The target of assay [3] is STREPTACTIN® (mutated streptavidin molecule) (Streptomyces avidinii, UniProt P22629, E68V/S69T/V71R). To be noted: biotin-binding site of STREPTACTIN; read-out: binding affinity (Kd); cited from earlier work.
STREPTACTIN® (mutated streptavidin molecule), sequence (P22629 38-163 E68V/S69T/V71R): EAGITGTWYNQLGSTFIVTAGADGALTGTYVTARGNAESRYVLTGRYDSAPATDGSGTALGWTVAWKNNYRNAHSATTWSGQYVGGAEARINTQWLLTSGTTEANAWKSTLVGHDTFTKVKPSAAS

On to “Anti-HLA-class I monoclonal antibody conjugated to FITC (clone: B9.12.1)”, for which the Fluorescence units (FU) in assay [1] came to 300 FU; in assay [2], 600 FU.
On to “short peptide sequence binding the biotin-binding site of a mutated streptavidin molecule (STREPTACTIN) [streptagII]”, for which the equilibrium dissociation constant (Kd) in assay [3] was approximately 1000 nM.

The record behind these values is patent publication US8815528B2, “Methods and systems for detecting MHC class I binding peptides” (Beckman Coulter, Inc., priority 2002, dated 2014).
